Assay results as given in the RNAGym collection of RNA variant scans (doi:10.1093/molbev/msab373).

B1: Azoarcus group I ribozyme (parent)
chain: GUGCCUUGCGCCGGGAAACCACGCAAGGGAUGGUGUCAAAUUCGGCGAAACCUAAGCGCCCGCCCGGGCGUAUGGCAACGCCGAGCCAAGCUUCGGCGCCUGCGCCGAUGAAGGUGUAGAGACUAGACGGCACCCACCUAAGGCAAACGCUAUGGUGAAGGCAUAGUCCAGGGAGUGGCGAAAGUCACACAAACCGG

Variants of: B1
Test: reverse-splicing fitness (ratio to wild type); higher = more active; in vitro selection; Mg2+ level not given
Method in brief: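 An in vitro group I ribozyme library with randomized positions was T7-transcribed and gel-purified. In triplicate, 10 pmol RNA in EPPS pH 7.5 was reacted with 50 pmoles of a 30-nt RNA substrate for 1 h at 37 °C across several added MgCl2 levels (1–48 mM), then stopped with EDTA. Products were reverse transcribed from a substrate-complementary primer, PCR-amplified and sequenced (HiSeq 4000). Fitness is a variant's read proportion after selection over that before, normalised to wild type.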

Row | Variant | reverse-splicing fitness
1 | A111C C150U C169U U176C | 0.0245
2 | A111C C150U C169U U176G | 0.00793
3 | A111C C150U C169U U176A | 0.0241
4 | A111C C169U U176A | 0.0264
5 | A111C C169U U176G | 0.00757
6 | A111C C169U U176C | 0.0304
7 | A111G A120C A145C U176C | 0.419
8 | A111G A120C A145C U176G | 0.129
9 | A111G A120C A145C U176A | 0.42
10 | A111G A120C A145G C169U | 0.254
11 | A111G A120C A145G C169G | 0.0121
12 | A111G A120C A145G C169A | 0.0165
13 | A111G A120C A145U C150U C169A U176C | 0.00821
14 | A111G A120C A145U C150U C169A U176G | 0.00393
15 | A111G A120C A145U C150U C169A U176A | 0.0122
16 | A111G A120C A145G C150G C169G | 0.0082
17 | A111G A120C A145G C150G C169A | 0.00936
18 | A111G A120C A145G C150G C169U | 0.0255
19 | A111C C150U | 0.709
20 | A111C C150G | 0.185
21 | A111C C150A | 0.303

Row | Variant | reverse-splicing fitness
22 | A111G A120C A145U C169U | 0.262
23 | A111G A120C A145U C169A | 0.0133
24 | A111G A120C A145U C169G | 0.0128
25 | A111C C150A C169G U176A | 0.016
26 | A111C C150A C169G U176C | 0.0246
27 | A111C C150A C169G U176G | 0.00762
28 | A111G A120C A145C C150A C169A U176C | 0.0045
29 | A111G A120C A145C C150A C169A U176G | 0.00443
30 | A111G A120C A145C C150A C169A U176A | 0.00728
31 | A111C A145U C150G | 0.219
32 | A111C A145U C150U | 0.731
33 | A111G A120C A145U C169U U176A | 0.0589
34 | A111G A120C A145U C169U U176C | 0.0719
35 | A111G A120C A145U C169U U176G | 0.00772
36 | A111C C150A U176G | 0.0531
37 | A111C C150A U176C | 0.147
38 | A111C C150A U176A | 0.12
39 | A111G A120C A145U C169A U176G | 0.00333
40 | A111G A120C A145U C169A U176C | 0.0103
41 | A111G A120C A145U C169A U176A | 0.00811
42 | A111G A120C A145G C169G U176G | 0.00387

Row | Variant | reverse-splicing fitness
43 | A111G A120C A145G C169G U176A | 0.019
44 | A111G A120C A145G C169G U176C | 0.0194
45 | A111G A120C A145C C169G U176G | 0.00352
46 | A111G A120C A145C C169G U176A | 0.0167
47 | A111G A120C A145C C169G U176C | 0.00881
48 | A111G A120C C150G C169G U176C | 0.00358
49 | A111G A120C C150G C169G U176A | 0.00631
50 | A111G A120C A145U C150U | 0.579
51 | A111G A120C A145U C150G | 0.12
52 | A111G A120C A145U C150A | 0.111
53 | A111C C150G C169U U176G | 0.00651
54 | A111C C150G C169U U176C | 0.014
55 | A111C C150G C169U U176A | 0.00732
56 | A111G A120C A145C C150A C169U | 0.0193
57 | A111G A120C A145C C150A C169G | 0.00815
58 | A111G A120C A145C C150A C169A | 0.00705
59 | A111G A120C A145G U176A | 0.457
60 | A111G A120C A145G U176C | 0.44
61 | A111G A120C A145G U176G | 0.0972
62 | A111G | 1.01
63 | A111C A145U C150U C169A U176C | 0.0129

Row | Variant | reverse-splicing fitness
64 | A111C A145U C150U C169A U176A | 0.0122
65 | A111C A145U C150U C169A U176G | 0.00758
66 | A111G A120C A145G C150U C169G | 0.0142
67 | A111G A120C A145G C150U C169U | 0.224
68 | A111G A120C A145G C150U C169A | 0.0158
69 | A111C C150G C169A U176C | 0.0107
70 | A111C C150G C169A U176G | 0.00532
71 | A111C C150G C169A U176A | 0.00958
72 | A111C C169G U176G | 0.00725
73 | A111C C169G U176A | 0.0217
74 | A111C C169G U176C | 0.0355
75 | A111G A120C A145G C150A C169A | 0.0114
76 | A111G A120C A145G C150A C169G | 0.0108
77 | A111G A120C A145G C150A C169U | 0.0508
78 | A111G A120C A145U C150U C169G U176C | 0.0106
79 | A111G A120C A145U C150U C169G U176A | 0.014
80 | A111G A120C A145U C150U C169G U176G | 0.00446
81 | A111G A120C A145C C150A C169U U176C | 0.012
82 | A111G A120C A145C C150A C169U U176G | 0.00433
83 | A111G A120C A145C C150A C169U U176A | 0.016
